The values below come from paper PMC2191985 (The Journal of Experimental Medicine, 1995).

Series [1] deals with 10-kD NH2-terminal fragment of the invariant chain (Ii-p10) (mouse). The series is described as follows: SEC + co-IP.
The series “SEC + co-IP” concerns the molecule itself. Briefly: SEC + co-IP.

For orientation: stoichiometry N means the number of molecules, sites or subunits per partner or assembly.

Turning to “10-kD NH2-terminal fragment of the invariant chain (Ii-p10) (domain or fragment)”, the stoichiometry N in series [1] was 3.

B1: intact invariant (Ii) chain (natural protein, mouse, UniProt P04441-2 1-215, looked up)
chain: MDDQRDLISNHEQLPILGNRPREPERCSRGALYTGVSVLVALLLAGQATTAYFLYQQQGRLDKLTITSQNLQLESLRMKLPKSAKPVSQMRMATPLLMRPMSMDNMLLGPVKNVTKYGNMTQDHVMHLLTRSGPLEYPQLKGTFPENLKHLKNSMDGVNWKIFESWMKQWLLFEMSKNSLEEKKPTEAPPKEPLDMEDLSSGLGVTRQELGQVTL
Regarding B1, the “stoichiometry N” value in the series “SEC + co-IP” came out at 3.
